Among the data in patent publication US20220153873A1 (ICAHN SCHOOL OF MEDICINE AT MOUNT SINAI, published 2022) are Early Stability X=902 and % Dissociation values, retold here.

For experiment [1], the target named is recombinant neuraminidase (rNA) of B/Wisconsin/1/10 (influenza B virus B/Wisconsin/1/10).
Experiment [2] has as its target recombinant neuraminidase (rNA) of B/Malaysia/2506/04 (influenza B virus B/Malaysia/2506/04).

Several values for one entry are separate records, joined by “and”; a condition that tells them apart may be missing. Equal entries are not always repeated.

B1: HC0LC0 (antibody, V domains shown)
VH: QVHLQQSGPEVARPGASVKLSCKASGYTFTDYYLNWVKQRPRQGLEWIGQIHPGSTNTYYNEKFKGKATLTADKSSSTAYMQLSSLTSEDSAVYFCARSLGDGYYVYAMDYWGQGTAVTVSS
VL: DIVMTQSQKFMSTSVGDRVSVTCKASQNVVTNVVWYQQKPGQSPKPLIYSASYRYSGVPDRFTGSGSGTDFTLTISNVQSEDLAEYCCQQYHSYPFTFGSGTKLEVKR
For B1, the Early Stability X=902 in experiment [1] is 0.32 nm and 0.3 nm and 0.33 nm. For the same molecule, the % Dissociation in experiment [2] is 0.52% and 0%.
